Positions count from the first letter of the chain named. Values belong to the binder of their own block, whether it stands above or below them.
Assays:
[1] = target: T1, human-derived Fcγ receptor IIb (Recombinant Human FcRIIB/C, R&D systems) (human, UniProt P31994 46-217, limits assumed); assay: SPR (Biacore T100), FcγRIIb immobilized on CM5, antibody as analyte at 200 µg/ml, 25 C
T1 construct: Bought recombinant protein, construct not described; also called FcγRIIb
T1 sequence (looked up): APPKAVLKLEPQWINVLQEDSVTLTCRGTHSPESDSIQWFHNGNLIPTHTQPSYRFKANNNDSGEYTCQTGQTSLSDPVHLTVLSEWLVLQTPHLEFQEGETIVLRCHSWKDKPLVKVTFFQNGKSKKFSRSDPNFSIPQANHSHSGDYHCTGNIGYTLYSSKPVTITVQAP
Description: The FcγRIIb binding was assessed by the procedure described below. […] The amounts of bound antibody were compared. […] FcγRIIb was immobilized onto the sensor chip CM5 (Biacore) by the amine coupling method. The final amount of immobilized FcγRIIb was about 4,300 RU. Then, the running buffer was injected until the baseline was stabilized. The measurement was carried out after the baseline was stabilized. […] The running buffer used was HBS-EP+ (10 mM HEPES, 0.15M NaCl, 3 mM EDTA, 0.05% v/v Surfactant P20), and the flow rate was 20 μl/min. The measurement temperature was 25° C. The concentration of each IgG or modified form thereof was adjusted to 200 μg/ml. 20 μl of an analyte was injected and allowed to interact with the immobilized FcγRIIb. After interaction, the analyte was dissociated from FcγRIIb and the sensor chip was regenerated by injecting 200 μl of the running buffer. […] This series of injection was repeated twice.

[2] = target: T2, hFcγRIIIaV-His6 (human-derived Fcγ receptor IIIa, Val) (human, UniProt P08637 17-208, limits assumed); assay: SPR (Biacore T100), hFcγRIIIaV-His6 immobilized on CM5, antibody as analyte at 250 µg/ml
T2 construct: also called FcγRIIIa (Val); not shown: His6 tag
T2 sequence (P08637 17-208 F176V limits assumed): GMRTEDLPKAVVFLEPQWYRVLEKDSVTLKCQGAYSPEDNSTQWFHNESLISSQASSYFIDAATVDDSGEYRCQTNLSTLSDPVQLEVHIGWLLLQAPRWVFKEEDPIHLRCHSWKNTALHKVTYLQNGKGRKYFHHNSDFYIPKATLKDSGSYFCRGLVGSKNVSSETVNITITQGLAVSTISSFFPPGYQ
Description: The FcγRIIIa binding was assessed by the procedure described below. […] The amounts of bound antibody were compared. […] FcγRIIIa was immobilized onto the sensor chip CM5 (Biacore) by the amine coupling method. […] The running buffer used was HBS-EP+, and the flow rate was 5 μl/min. The sample concentration was adjusted to 250 μg/ml using HBS-EP+. The analysis included two steps: two minutes of association phase where 10 μl of an antibody solution was injected and the subsequent four minutes of dissociation phase where the injection was switched with HBS-EP+. After the dissociation phase, the sensor chip was regenerated by injecting 20 μl of 5 mM hydrochloric acid. The association, dissociation, and regeneration constitute one analysis cycle. Various antibody solutions were injected to obtain sensorgrams. […] 1999 August; 29(8):2613-24.

[3] = target: T3, recombinant human IL-6R sR (R&D systems) (human, UniProt P08887 20-358); assay: SPR (Biacore T100), antibody captured on Protein A, rhIL-6sR as analyte, 25 C
T3 construct: Bought soluble receptor; also called rhIL-6sR; rhIL-s6R
T3 sequence (looked up): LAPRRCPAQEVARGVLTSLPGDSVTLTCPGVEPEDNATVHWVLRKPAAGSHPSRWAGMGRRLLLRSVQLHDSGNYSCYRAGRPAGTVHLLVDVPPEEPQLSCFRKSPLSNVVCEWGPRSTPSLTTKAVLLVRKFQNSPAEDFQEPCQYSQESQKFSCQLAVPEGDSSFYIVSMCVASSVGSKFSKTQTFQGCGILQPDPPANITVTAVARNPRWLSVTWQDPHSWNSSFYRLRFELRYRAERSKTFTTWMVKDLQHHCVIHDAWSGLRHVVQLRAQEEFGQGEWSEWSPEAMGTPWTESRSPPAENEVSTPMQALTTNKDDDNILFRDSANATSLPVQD
Description: The antigen-antibody interaction was measured by immobilizing 1,800 to 2,600 RU (resonance units) of rec-Protein A (Zymed) (hereinafter “Protein A”) onto a sensor chip, binding various antibodies onto the chip, and then flowing the antigen over the chip as an analyte. Various concentrations of recombinant human IL-6R sR (R&D systems) (hereinafter “rhIL-6sR”) were used as the antigen. All measurements were carried out at 25° C. The kinetic parameters, association rate constant kₐ (1/Ms) and dissociation rate constant kd (1/s) were calculated from the sensorgrams obtained by measurement. Then, KD (M) was determined based on the rate constants. The respective parameters were determined using Biacore T100 Evaluation Software (Biacore).

[4] = target: T4, SR344 (N-terminal 1st to 344th amino acids of soluble human IL-6R) (human, UniProt P08887 20-344, limits assumed); assay: cell-based or functional assay
T4 sequence (looked up): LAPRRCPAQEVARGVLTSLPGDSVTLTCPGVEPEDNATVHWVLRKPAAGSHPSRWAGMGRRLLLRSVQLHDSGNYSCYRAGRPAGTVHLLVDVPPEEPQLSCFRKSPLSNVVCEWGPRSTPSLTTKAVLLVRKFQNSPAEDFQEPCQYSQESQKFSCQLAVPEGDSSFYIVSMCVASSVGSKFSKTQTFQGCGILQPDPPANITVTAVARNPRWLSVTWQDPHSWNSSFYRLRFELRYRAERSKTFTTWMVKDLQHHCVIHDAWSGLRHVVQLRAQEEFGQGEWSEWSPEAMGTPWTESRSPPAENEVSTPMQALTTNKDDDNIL

[5] = target: T5, soluble GPC3 core polypeptide (human, UniProt P51654 25-563); assay: competitive ELISA on plate-immobilized soluble GPC3 core polypeptide; competitor: biotinylated H0L0 antibody at 0.3 µg/mL
T5 construct: also called soluble GPC3 core protein; soluble glypican-3 core
T5 sequence (P51654 other isoform, or with tags, fused parts or gaps limits assumed): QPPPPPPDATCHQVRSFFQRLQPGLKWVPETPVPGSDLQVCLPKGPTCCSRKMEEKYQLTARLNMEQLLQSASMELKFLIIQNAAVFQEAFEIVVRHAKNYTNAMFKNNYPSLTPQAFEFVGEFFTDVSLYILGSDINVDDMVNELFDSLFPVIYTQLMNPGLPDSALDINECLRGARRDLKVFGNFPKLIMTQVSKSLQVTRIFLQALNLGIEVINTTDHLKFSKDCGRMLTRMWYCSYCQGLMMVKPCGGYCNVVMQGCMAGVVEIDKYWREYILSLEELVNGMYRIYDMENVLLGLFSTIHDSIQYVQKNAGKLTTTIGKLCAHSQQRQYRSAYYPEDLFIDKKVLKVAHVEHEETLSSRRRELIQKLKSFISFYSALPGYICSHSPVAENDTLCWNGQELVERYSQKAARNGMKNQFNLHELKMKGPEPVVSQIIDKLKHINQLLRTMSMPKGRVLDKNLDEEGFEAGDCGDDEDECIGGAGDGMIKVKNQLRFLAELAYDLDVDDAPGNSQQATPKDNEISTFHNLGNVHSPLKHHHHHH
Description: 100 μl of the polypeptide solution was added to each well of a 96-well plate. […] After 200 μl of blocking buffer was added, the plate was blocked at 4° C. overnight or longer. […] The plate was incubated at room temperature for one hour, and then washed five times with washing buffer using SkanWasher 400 (Molecular Devices). Goat anti-streptavidin alkaline phosphatase (Zymed) was 20,000-times diluted with substrate buffer and added to the plate at 100 μl/well. The plate was incubated at room temperature for one hour, and then washed five times with washing buffer using SkanWasher 400. The concentration of phosphatase substrate (Sigma) was adjusted to 1 mg/ml using the substrate buffer, and the solution was added to the plate at 100 μl/well. The plate was incubated for one hour.

[6] = target: T5, soluble GPC3 core polypeptide; assay: competitive ELISA on plate-immobilized soluble GPC3 core polypeptide; competitor: biotinylated GPC3-H2L2 antibody at 0.3 µg/mL
Description: The binding activities of prepared antibodies were determined by competitive ELISA. […] The plates were incubated at 4° C. for 30 minutes or more for blocking. […] The plates were incubated at room temperature for one hour, and then washed five times with washing buffer using SkanWasher 400 (Molecular Devices). 100 μl of goat anti streptavidin alkaline phosphatase (Zymed) 20,000-times diluted with substrate buffer was added to each well. The plates were incubated at room temperature for one hour, and then washed five times with washing buffer using SkanWasher 400. Phosphatase Substrate (Sigma) was prepared at 1 mg/ml using substrate buffer, and added to each well (100 μl). The plates were incubated for one hour.

binding result [1]: binds | binding result [2]: binds
B1: WT-M17ΔGK (antibody, human IgG1, kappa)
heavy: QVQLQESGPGLVRPSQTLSLTCTVSGYSITSDHAWSWVRQPPGRGLEWIGYISYSGITTYNPSLKSRVTMLRDTSKNQFSLRLSSVTAADTAVYYCARSLARTTAMDYWGQGSLVTVSSASTKGPSVFPLAPSSKSTSGGTAALGCLVKDYFPEPVTVSWNSGALTSGVHTFPAVLQSSGLYSLSSVVTVPSSSLGTQTYICNVNHKPSNTKVDKKVEPKSCDKTHTCPPCPAPPVAGPSVFLFPPKPKDTLMISRTPEVTCVVVDVSHEDPEVKFNWYVDGVEVHNAKTKPREEQYNSTYRVVSVLTVLHQDWLNGKEYKCKVSNKGLPSSIEKTISKAKGQPREPQVYTLPPSRDELTKNQVSLTCLVKGFYPSDIAVEWESNGQPENNYKTTPPVLDSDGSFFLYSKLTVDKSRWQQGNVFSCSVMHEALHNHYTQKSLSLSP
light: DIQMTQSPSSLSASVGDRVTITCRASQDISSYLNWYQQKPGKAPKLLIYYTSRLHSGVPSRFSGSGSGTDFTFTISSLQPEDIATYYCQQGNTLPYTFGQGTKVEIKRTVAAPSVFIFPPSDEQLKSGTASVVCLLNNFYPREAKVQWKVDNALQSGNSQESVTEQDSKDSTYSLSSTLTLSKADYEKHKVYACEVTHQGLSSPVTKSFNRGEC

Kd [3]: 0.012 nM | fold higher affinity than WT [3]: ~50 fold | koff [3]: 2.8e-05 s⁻¹ | kon [3]: 2.3e+06 M⁻¹ s⁻¹ | BaF3/gp130 neutralizing activity, 100% inhibitory concentration against WT [4]: ~50 fold
B2: RD-6 (antibody, V domains shown)
VH: QVQLQESGPGLVRPSQTLSLTCTVSGYSITSDHAWSWVRQPPGRGLEWIGYISYSGITTYNPSLKSRVTMLRDTSKNQFSLRLSSVTAADTAVYYCARLLARATAMDYWGQGSLVTVSS
VL: DIQMTQSPSSLSASVGDRVTITCRASQDISSYLNWYQQKPGKAPKLLIYYTSRLHSGVPSRFSGSGSGTDFTFTISSLQPEDIATYYCQQGNTLPYTFGQGTKVEIK
notes: VH assembled from the FR and CDR entries of humanized PM-1

binding result [1]: binds | binding result [2]: binds
B3: WT-M11ΔGK (antibody)
heavy: QVQLQESGPGLVRPSQTLSLTCTVSGYSITSDHAWSWVRQPPGRGLEWIGYISYSGITTYNPSLKSRVTMLRDTSKNQFSLRLSSVTAADTAVYYCARSLARTTAMDYWGQGSLVTVSSASTKGPSVFPLAPSSKSTSGGTAALGCLVKDYFPEPVTVSWNSGALTSGVHTFPAVLQSSGLYSLSSVVTVPSSSLGTKTYTCNVDHKPSNTKVDKTVERKSCVECPPCPAPPVAGPSVFLFPPKPKDTLMISRTPEVTCVVVDVSQEDPEVQFNWYVDGVEVHNAKTKPREEQFNSTYRVVSVLTVLHQDWLNGKEYKCKVSNKGLPSSIEKTISKAKGQPREPQVYTLPPSQEEMTKNQVSLTCLVKGFYPSDIAVEWESNGQPENNYKTTPPVLDSDGSFFLYSKLTVDKSRWQEGNVFSCSVMHEALHNHYTQKSLSLSL
light: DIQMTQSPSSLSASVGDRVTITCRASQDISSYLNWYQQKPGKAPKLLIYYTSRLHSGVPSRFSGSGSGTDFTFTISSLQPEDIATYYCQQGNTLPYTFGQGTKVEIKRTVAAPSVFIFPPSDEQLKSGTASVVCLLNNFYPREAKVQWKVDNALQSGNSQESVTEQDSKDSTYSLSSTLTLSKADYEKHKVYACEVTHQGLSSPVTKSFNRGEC

binding result [1]: binds | binding result [2]: binds
B4: WT-IgG2 (antibody)
heavy: QVQLQESGPGLVRPSQTLSLTCTVSGYSITSDHAWSWVRQPPGRGLEWIGYISYSGITTYNPSLKSRVTMLRDTSKNQFSLRLSSVTAADTAVYYCARSLARTTAMDYWGQGSLVTVSSASTKGPSVFPLAPCSRSTSESTAALGCLVKDYFPEPVTVSWNSGALTSGVHTFPAVLQSSGLYSLSSVVTVPSSNFGTQTYTCNVDHKPSNTKVDKTVERKCCVECPPCPAPPVAGPSVFLFPPKPKDTLMISRTPEVTCVVVDVSHEDPEVQFNWYVDGVEVHNAKTKPREEQFNSTFRVVSVLTVVHQDWLNGKEYKCKVSNKGLPAPIEKTISKTKGQPREPQVYTLPPSREEMTKNQVSLTCLVKGFYPSDIAVEWESNGQPENNYKTTPPMLDSDGSFFLYSKLTVDKSRWQQGNVFSCSVMHEALHNHYTQKSLSLSPGK
light: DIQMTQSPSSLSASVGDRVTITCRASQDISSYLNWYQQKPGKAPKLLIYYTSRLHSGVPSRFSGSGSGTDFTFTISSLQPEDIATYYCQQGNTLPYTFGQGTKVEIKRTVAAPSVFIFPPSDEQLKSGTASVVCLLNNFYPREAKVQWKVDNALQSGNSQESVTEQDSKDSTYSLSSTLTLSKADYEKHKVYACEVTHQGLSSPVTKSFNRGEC

binding result [5]: binds
B5: antibody H15L4 (antibody, V domains shown)
VH: QVQLVQSGAEVKKPGASVKVSCKASGYTFTDYEMHWIRQPPGQGLEWIGAIDPKTGDTAYSQKFKGRVTLTADKSTSTAYMELSSLTSEDTAVYYCTRFYSYTYWGQGTLVTVSS
VL: DIVMTQSPLSLPVTPGEPASISCRSSQSLVHSNRNTYLHWYQQKPGQAPRLLIYKVSNRFSGVPDRFSGSGSGTDFTLKISRVEAEDVGVYYCSQNTHVPPTFGQGTKLEIK
notes: Point mutant of the anti-glypican 3 antibody H0L0

IC50 (read off the curve) [6]: ~0.9 µg/mL
B6: GPC3_H2L2 (antibody, human IgG1, kappa, V domains shown)
VH: B5 VH with I37V, P40A, I48M, I51L
VL: DVVMTQSPLSLPVTPGEPASISCRSSQSLVHSNRNTYLHWYLQKPGQSPQLLIYKVSNRFSGVPDRFSGSGSGTDFTLKISRVEAEDVGVYYCSQNTHVPPTFGQGTKLEIKR

IC50 (read off the curve) [6]: ~0.9 µg/mL
B7: GPC3_H3L3 (antibody, human IgG1, kappa, V domains shown)
VH: B5 VH with K19T, Q43E, Q62E, K63S, K65Q, G66D
VL: B6 VL with V2I, R24Q, S25A, Q27E, L109V, K112E

binding result [6]: binds
B8: GPC3_H1L1 (antibody, human IgG1, kappa, V domains shown)
VH: B5 VH with Q43K, D52N, Q107R
VL: B6 VL with V2I, E17Q, S25A, Q27R, L42Q, S48A, Q50R, Q105R
notes: Anti-human GPC3 antibody

binding result [5]: binds
B9: Hspd1.8Lspd1.6 antibody (antibody, V domains shown)
VH: B5 VH with K19T, Q43E, K63S, K65Q, G66D
VL: B5 VL with S25A, Q27E, K79T, R82S, V83L, E84Q
notes: Anti-glypican 3, lowered isoelectric point; also called Hd1.8Ld1.6

binding result [5]: binds
B10: Hspu2.2Lspu2.2 antibody (antibody, V domains shown)
VH: B5 VH with Q43K, D52N, Q107R
VL: B5 VL with E17Q, S25A, Q27R, Q105R
notes: Anti-glypican 3, raised isoelectric point; also called Hu2.2Lu2.2

Source: patent US20150284465A1 (Chugai, published 2015)
